The term Kd denotes a measure of binding affinity in units of concentration. A low value points to higher affinity.

We go through 3 molecules from patent publication US20260028391A1 (HUMABS BIOMED, published 2026).

One assay addresses T1, RSV-A F (RSV A).
T1 construct: also called RSV F A
As to the kind of experiment: affinity; method not given.

The target of another assay is T2, RSV-B F (RSV B).
T2 construct: also called RSV F B
As to the kind of experiment: affinity; method not given.

Assay [1] concerns the target RSV A2 (screening GFP strain) fusion glycoprotein (F) (RSV A). Put plainly: cell-based or functional assay.
Assay [2] deals with RSV A2 VR 1540 fusion glycoprotein (F) (RSV A, strain A2 (VR 1540), UniProt P03420 26-574). Put plainly: cell-based or functional assay.
Assay [3] concerns the target RSV A1997/12-35 fusion glycoprotein (F) (RSV A, strain A1997/12-35). Put plainly: cell-based or functional assay.
The target of assay [4] is RSV A 2001/3-12 fusion glycoprotein (F) (RSV A, strain A 2001/3-12). As to the kind of experiment: cell-based or functional assay.
For assay [5], the target named is RSV Ds Red 5 fusion glycoprotein (F) (RSV, strain printed as Ds Red 5). Put plainly: cell-based or functional assay.
The target of assay [6] is RSV A1998/3-2 fusion glycoprotein (F) (RSV A, strain A1998/3-2). As to the kind of experiment: cell-based or functional assay.
Assay [7] concerns the target RSV B (screening GFP strain) fusion glycoprotein (F) (RSV B). As to the kind of experiment: cell-based or functional assay.
Assay [8] has as its target RSV A 2000/3-4 fusion glycoprotein (F) (RSV A, strain A 2000/3-4). Put plainly: cell-based or functional assay.
In assay [9] the target is RSV B1 BPR-348-00 (BEI NR-4052) fusion glycoprotein (F) (RSV B, strain B1, UniProt O36634 26-574). As to the kind of experiment: cell-based or functional assay.
Assay [10] has as its target RSV A2 BPR-344-00 (BEI NR-12149) fusion glycoprotein (F) (RSV A, strain A2, UniProt P03420 26-574). Put plainly: cell-based or functional assay.
Assay [11] concerns the target RSV B 9719/09 fusion glycoprotein (F) (RSV B, strain 9719/09). Put plainly: cell-based or functional assay.
Assay [12] deals with RSV A Randall fusion glycoprotein (F) (RSV A, strain Randall). Put plainly: cell-based or functional assay.

B1: MPK176-rIgG1-LS (antibody, V domains shown)
VH: QVQLVQSGAEVKKPGASVRVSCKASGYTLTAYGISWVRQAPGQGLEWMGWISPKHGNTHYAQRFQGRVTMTTDTSTSTAYMELRSLRPDDTAVYFCAREGVDIMAVPWYFDYWGQGTLVAVSS
VL: SYELTQPPSVSVAPGQTARISCGGNNIGSKSVHWYQQKPGQAPVVVVYDDSDRPSGIPERFSGSNSGNTATLTISGVEAGDEADYFCQVWDSATDHWVFGGGTKLTVL
notes: Recombinant human IgG1 with M428L/N434S (LS)
With B1, the values for the equilibrium dissociation constant (Kd) with RSV-A F and with RSV-B F were 59.1 pM and 1 pM, respectively. Moreover, the “IC50, virus neutralization” value in [1] came out at 4.15 ng/mL; in assay [2], 2.87 ng/mL; in [3] it was 2.08 ng/mL; in assay [4] it was 2.12 ng/mL; in assay [5], 1.06 ng/mL; in assay [6], 2.45 ng/mL. The “IC50, virus neutralization” value in assay [7] stood at 2.19 ng/mL; in assay [8], 2.3 ng/mL.

B2: MPK65-v2-rIgG1-LS (antibody, V domains shown)
VH: QVPLVQSGAEVKKPGESLKISCKGSGYSFINYWIGWVRQMPGKGLEWMGVIYPFDSDTKYSPSFQGHVTISADKSSNTAYVQWSSLKASDTAMYYCARFTFGIAVVTDDVSGEGQAFEIWGQGTMVTVSS
VL: EIVMMQSPATLSVSPGERATLSCRASQSVAGNLAWYQQRPGQAPRLLIYGASTRATGVPARFSGSGSETEFTLTISSLQSEDFAVYYCHQYSNWPQAFGQGTRLDIK
notes: as for B1
Take B2: the Kd with RSV-B F was 404 pM. Further, the “IC50, virus neutralization” value came out at 0.955 ng/mL in assay [1]; 0.95 ng/mL in assay [2]; 0.56 ng/mL in [3]; 0.59 ng/mL in assay [4]; 0.47 ng/mL in assay [5]; 0.17 ng/mL in [6]. Besides, the “IC50, virus neutralization” value amounted to 0.607 ng/mL in assay [7]; 0.74 ng/mL in assay [8]; 0.4 ng/mL in [9]; 0.5 ng/mL in assay [10]; 0.741 ng/mL in assay [11]; 1.7 ng/mL in assay [12].

B3: MPK201-rIgG1-LS (antibody, V domains shown)
VH: EVQLVQSGAEVKKPGESLKISCQGSGYSFINYWIGWVRQKPGKGLEWMGIIYPFDSETKYSPSFQGHVTFSADKSINTAYVQWSSLRASDTAMYYCARFTFGLAVTTADVSGEGQAFEIWGQGTMVTVSS
VL: EIVMMQSPATLSVSPGERATLSCRASQSVAGNLAWYQQRPGQAPRLLVYGASTRASGVPARFSGSGSETEFTLTISSLQSEDFAVYYCHHYSDWPQAFGQGTRLDIK
notes: as for B1
As for B3, the Kd with RSV-A F and in the assay with RSV-B F was 1 pM each time. The “IC50, virus neutralization” value in [1] was determined as 2.83 ng/mL; in assay [2], 1.53 ng/mL; in assay [3] it was 2.33 ng/mL; in assay [4] it was 1.77 ng/mL; in [5], 1.23 ng/mL; in assay [6], 3.01 ng/mL. Besides, the “IC50, virus neutralization” value came out at 1.49 ng/mL in [7] and 1.26 ng/mL in [8].
